What was measured:
purified protein [1] = substrate: C[N+](C)(C)[C@@H](Cc1cnc([S+]([O-])C[C@H](N)C(=O)O)[nH]1)C(=O)[O-]; test: purified protein; assay type: biochemical, Mycolicibacterium smegmatis; conditions: 50 mM KPi pH 8.0, 1.0 mM DTT, 10 nM EgtE, 0.13 mM NADH, LDH
purified protein [2] = substrate: C[N+](C)(C)[C@@H](Cc1cnc(SC[C@H](N)C(=O)O)[nH]1)C(=O)[O-]; test: purified protein; assay type: biochemical, Mycolicibacterium smegmatis; conditions: 50 mM KPi pH 8.0, 1.0 mM DTT, 10 nM EgtE, 0.13 mM NADH, LDH

B1: EgtE (Mycolicibacterium smegmatis MC2 155) (protein)
chain: MMLAQQWRDARPKVAGLHLDSGACSRQSFAVIDATTAHARHEAEVGGYVAAEAATPALDAGRAAVASLIGFAASDVVYTSGSNHAIDLLLSSWPGKRTLACLPGEYGPNLSAMAANGFQVRALPVDDDGRVLVDEASHELSAHPVALVHLTALASHRGIAQPAAELVEACHNAGIPVVIDAAQALGHLDCNVGADAVYSSSRKWLAGPRGVGVLAVRPELAERLQPRIPPSDWPIPMSVLEKLELGEHNAAARVGFSVAVGEHLAAGPTAVRERLAEVGRLSRQVLAEVDGWRVVEPVDQPTAITTLESTDGADPASVRSWLIAERGIVTTACELARAPFEMRTPVLRISPHVDVTVDELEQFAAALREAP
notes: cloning details in supplement
Purified protein [1]
  Km: 121.2 ± 6.6 µM
  kcat: 25.27 ± 0.45 s⁻¹
Purified protein [2]
  Km: 1960 ± 250 µM
  kcat: 7.93 ± 0.05 s⁻¹
